Tests used:
Assay in all cases: cell-based or functional assay
[1] = target: HIV-1 Env of isolate MGRM-D-002 (subtype D) (HIV-1)
[2] = target: HIV-1 Env of isolate 92TH021 (subtype AE) (HIV-1)
[3] = target: HIV-1 Env of isolate MGRM-AE-004 (subtype AE) (HIV-1)
[4] = target: HIV-1 Env of isolate VLGCA1 (subtype A) (HIV-1)
[5] = target: HIV-1 Env of isolate MGRM-F1-016 (subtype F) (HIV-1)
[6] = target: HIV-1 Env of isolate 92WR024 (subtype A) (HIV-1)
[7] = target: HIV-1 Env of isolate MGRM-D-014 (subtype D) (HIV-1)
[8] = target: HIV-1 Env of isolate 93UG077 (subtype A) (HIV-1)
[9] = target: HIV-1 Env of isolate MGRM-D-028 (subtype D) (HIV-1)
[10] = target: HIV-1 Env of isolate MGRM-AE-007 (subtype AE) (HIV-1)
[11] = target: HIV-1 Env of isolate 94UG103 (subtype A) (HIV-1)
[12] = target: HIV-1 Env of isolate 92UG114 (subtype D) (HIV-1)
[13] = target: HIV-1 Env of isolate MGRM-D-024 (subtype D) (HIV-1)
[14] = target: HIV-1 Env of isolate MGRM-D-001 (subtype D) (HIV-1)
[15] = target: HIV-1 Env of isolate MGRM-F1-018 (subtype F) (HIV-1)
[16] = target: HIV-1 Env of isolate 92WR009 (subtype A) (HIV-1)
[17] = target: HIV-1 Env of isolate MGRM-AE-008 (subtype AE) (HIV-1)
[18] = target: HIV-1 Env of isolate 92WR026 (subtype A) (HIV-1)
[19] = target: HIV-1 Env of isolate MGRM-AE-006 (subtype AE) (HIV-1)
[20] = target: HIV-1 Env of isolate 92UG037 (subtype A) (HIV-1)
[21] = target: HIV-1 Env of isolate CMU02 (subtype AE) (HIV-1)
[22] = target: HIV-1 Env of isolate MGRM-F1-012 (subtype F) (HIV-1)
[23] = target: HIV-1 Env of isolate MGRM-D-029 (subtype D) (HIV-1)
[24] = target: HIV-1 Env of isolate MGRM-F1-014 (subtype F) (HIV-1)
[25] = target: HIV-1 Env of isolate MGRM-D-021 (subtype D) (HIV-1)
[26] = target: HIV-1 Env of isolate MGRM-D-012 (subtype D) (HIV-1)
[27] = target: HIV-1 Env of isolate 93WR029 (subtype A) (HIV-1)
[28] = target: HIV-1 Env of isolate 92UG031 (subtype A) (HIV-1)
[29] = target: HIV-1 Env of isolate MGRM-F1-013 (subtype F) (HIV-1)
[30] = target: HIV-1 Env of isolate MGRM-D-011 (subtype D) (HIV-1)
[31] = target: HIV-1 Env of isolate MGRM-F1-021 (subtype F) (HIV-1)
[32] = target: HIV-1 Env of isolate MGRM-F1-004 (subtype F) (HIV-1)
[33] = target: HIV-1 Env of isolate MGRM-D-003 (subtype D) (HIV-1)
[34] = target: HIV-1 Env of isolate MGRM-D-019 (subtype D) (HIV-1)
[35] = target: HIV-1 Env of isolate MGRM-D-005 (subtype D) (HIV-1)
[36] = target: HIV-1 Env of isolate MGRM-F1-020 (subtype F) (HIV-1)
[37] = target: HIV-1 Env of isolate MGRM-D-018 (subtype D) (HIV-1)
[38] = target: HIV-1 Env of isolate MGRM-AE-002 (subtype AE) (HIV-1)
[39] = target: HIV-1 Env of isolate MGRM-D-013 (subtype D) (HIV-1)
[40] = target: HIV-1 Env of isolate 94 KE 105 (subtype AC) (HIV-1)
[41] = target: HIV-1 Env of isolate MGRM-F1-010 (subtype F) (HIV-1)
[42] = target: HIV-1 Env of isolate MGRM-D-008 (subtype D) (HIV-1)
[43] = target: HIV-1 Env of isolate MGRM-AE-001 (subtype AE) (HIV-1)
[44] = target: HIV-1 Env of isolate MGRM-F1-022 (subtype F) (HIV-1)
[45] = target: HIV-1 Env of isolate MGRM-F1-017 (subtype F) (HIV-1)
[46] = target: HIV-1 Env of isolate MGRM-D-004 (subtype D) (HIV-1)
[47] = target: HIV-1 Env of isolate MGRM-D-016 (subtype D) (HIV-1)
[48] = target: HIV-1 Env of isolate MGRM-F1-015 (subtype F) (HIV-1)
[49] = target: HIV-1 Env of isolate MGRM-AE-005 (subtype AE) (HIV-1)
[50] = target: HIV-1 Env of isolate MGRM-F1-008 (subtype F) (HIV-1)
[51] = target: HIV-1 Env of isolate MGRM-F1-023 (subtype F) (HIV-1)
[52] = target: HIV-1 Env of isolate MGRM-AE-003 (subtype AE) (HIV-1)
[53] = target: HIV-1 Env of isolate 92WR020 (subtype A) (HIV-1)
[54] = target: HIV-1 Env of isolate MGRM-D-022 (subtype D) (HIV-1)
[55] = target: HIV-1 Env of isolate 92WR021 (subtype A) (HIV-1)
[56] = target: HIV-1 Env of isolate MGRM-D-026 (subtype D) (HIV-1)
[57] = target: HIV-1 Env of isolate MGRM-D-020 (subtype D) (HIV-1)
[58] = target: HIV-1 Env of isolate MGRM-F1-006 (subtype F) (HIV-1)

PGT-145 (4995_P16) (antibody), sequence (VH): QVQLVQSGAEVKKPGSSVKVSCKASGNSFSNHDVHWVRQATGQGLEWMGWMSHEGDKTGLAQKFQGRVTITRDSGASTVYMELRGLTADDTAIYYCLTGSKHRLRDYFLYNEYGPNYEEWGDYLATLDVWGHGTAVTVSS
PGT-145 (4995_P16) (antibody), sequence (VL): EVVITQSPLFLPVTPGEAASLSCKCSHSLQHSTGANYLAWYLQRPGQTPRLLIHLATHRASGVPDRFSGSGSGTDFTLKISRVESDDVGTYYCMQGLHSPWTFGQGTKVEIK

Substance: PGT-145 (4995_P16) (antibody)
- IC50 (pseudovirus neutralization) [1]: > 50 µg/mL
- IC50 (pseudovirus neutralization) [2]: 0.013 µg/mL
- IC50 (pseudovirus neutralization) [3]: 0.006 µg/mL
- IC50 (pseudovirus neutralization) [4]: 8.01 µg/mL
- IC50 (pseudovirus neutralization) [5]: 17.5 µg/mL
- IC50 (pseudovirus neutralization) [6]: 0.069 µg/mL
- IC50 (pseudovirus neutralization) [7]: 2.51 µg/mL
- IC50 (pseudovirus neutralization) [8]: > 50 µg/mL
- IC50 (pseudovirus neutralization) [9]: 0.721 µg/mL
- IC50 (pseudovirus neutralization) [10]: 0.181 µg/mL
- IC50 (pseudovirus neutralization) [11]: 0.331 µg/mL
- IC50 (pseudovirus neutralization) [12]: 20.1 µg/mL
- IC50 (pseudovirus neutralization) [13]: 0.224 µg/mL
- IC50 (pseudovirus neutralization) [14]: 0.56 µg/mL
- IC50 (pseudovirus neutralization) [15]: 1.02 µg/mL
- IC50 (pseudovirus neutralization) [16]: 0.026 µg/mL
- IC50 (pseudovirus neutralization) [17]: 1.46 µg/mL
- IC50 (pseudovirus neutralization) [18]: 1.45 µg/mL
- IC50 (pseudovirus neutralization) [19]: > 50 µg/mL
- IC50 (pseudovirus neutralization) [20]: 3.15 µg/mL
- IC50 (pseudovirus neutralization) [21]: 1.43 µg/mL
- IC50 (pseudovirus neutralization) [22]: 0.113 µg/mL
- IC50 (pseudovirus neutralization) [23]: 0.03 µg/mL
- IC50 (pseudovirus neutralization) [24]: 0.009 µg/mL
- IC50 (pseudovirus neutralization) [25]: > 50 µg/mL
- IC50 (pseudovirus neutralization) [26]: > 50 µg/mL
- IC50 (pseudovirus neutralization) [27]: > 50 µg/mL
- IC50 (pseudovirus neutralization) [28]: 3.22 µg/mL
- IC50 (pseudovirus neutralization) [29]: 0.402 µg/mL
- IC50 (pseudovirus neutralization) [30]: 14.7 µg/mL
- IC50 (pseudovirus neutralization) [31]: 8.04 µg/mL
- IC50 (pseudovirus neutralization) [32]: 0.361 µg/mL
- IC50 (pseudovirus neutralization) [33]: 0.006 µg/mL
- IC50 (pseudovirus neutralization) [34]: 0.111 µg/mL
- IC50 (pseudovirus neutralization) [35]: 10.4 µg/mL
- IC50 (pseudovirus neutralization) [36]: 0.816 µg/mL
- IC50 (pseudovirus neutralization) [37]: 0.065 µg/mL
- IC50 (pseudovirus neutralization) [38]: 1.87 µg/mL
- IC50 (pseudovirus neutralization) [39]: 3.48 µg/mL
- IC50 (pseudovirus neutralization) [40]: 1.32 µg/mL
- IC50 (pseudovirus neutralization) [41]: 3.32 µg/mL
- IC50 (pseudovirus neutralization) [42]: 0.025 µg/mL
- IC50 (pseudovirus neutralization) [43]: 20.9 µg/mL
- IC50 (pseudovirus neutralization) [44]: 0.009 µg/mL
- IC50 (pseudovirus neutralization) [45]: 0.286 µg/mL
- IC50 (pseudovirus neutralization) [46]: 10.9 µg/mL
- IC50 (pseudovirus neutralization) [47]: > 50 µg/mL
- IC50 (pseudovirus neutralization) [48]: 1.76 µg/mL
- IC50 (pseudovirus neutralization) [49]: 0.967 µg/mL
- IC50 (pseudovirus neutralization) [50]: 0.228 µg/mL
- IC50 (pseudovirus neutralization) [51]: 5.88 µg/mL
- IC50 (pseudovirus neutralization) [52]: 0.552 µg/mL
- IC50 (pseudovirus neutralization) [53]: 0.997 µg/mL
- IC50 (pseudovirus neutralization) [54]: 34.3 µg/mL
- IC50 (pseudovirus neutralization) [55]: 1.62 µg/mL
- IC50 (pseudovirus neutralization) [56]: 0.41 µg/mL
- IC50 (pseudovirus neutralization) [57]: 10 µg/mL
- IC50 (pseudovirus neutralization) [58]: 13.6 µg/mL

Source: patent US20160264649A1
